# Columns and labels:
# [1] = target: T1, TIM-3 protein on human peripheral blood mononuclear lymphocytes (PBMC) (human, UniProt Q8TDQ0 22-301); test: cell-based or functional assay
# T1 sequence: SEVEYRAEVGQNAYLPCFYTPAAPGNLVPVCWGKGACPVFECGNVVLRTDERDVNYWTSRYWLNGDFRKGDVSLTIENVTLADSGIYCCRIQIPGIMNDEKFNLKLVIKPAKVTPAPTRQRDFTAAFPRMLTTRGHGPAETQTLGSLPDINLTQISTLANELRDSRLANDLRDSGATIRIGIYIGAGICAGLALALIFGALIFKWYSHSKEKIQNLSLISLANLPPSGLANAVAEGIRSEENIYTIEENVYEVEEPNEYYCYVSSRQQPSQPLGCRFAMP
# [2] = target: T2, monkey TIM-3 on CHOK1 stable cell line (CHOK1-cTIM-3) (monkey); test: FACS, CHOK1-cTIM-3 cells, 40 nM antibody
# T2 chain: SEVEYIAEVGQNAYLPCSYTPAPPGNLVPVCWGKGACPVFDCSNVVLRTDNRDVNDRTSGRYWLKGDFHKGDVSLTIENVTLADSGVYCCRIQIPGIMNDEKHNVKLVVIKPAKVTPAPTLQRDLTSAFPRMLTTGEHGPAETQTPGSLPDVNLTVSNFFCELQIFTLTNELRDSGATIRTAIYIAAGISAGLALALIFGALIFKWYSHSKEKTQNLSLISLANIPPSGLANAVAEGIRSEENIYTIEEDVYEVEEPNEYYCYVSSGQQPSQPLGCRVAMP
# [3] = target: T3, human TIM-3 extracellular domain protein with hFc tag (hTIM-3-hFc) (human, UniProt Q8TDQ0 22-200); test: ELISA, coated human TIM-3 ECD protein, 0.6667 nM antibody
# T3 construct: not shown: human IgG Fc fragment (hFc) of the pCpC vector
# T3 sequence: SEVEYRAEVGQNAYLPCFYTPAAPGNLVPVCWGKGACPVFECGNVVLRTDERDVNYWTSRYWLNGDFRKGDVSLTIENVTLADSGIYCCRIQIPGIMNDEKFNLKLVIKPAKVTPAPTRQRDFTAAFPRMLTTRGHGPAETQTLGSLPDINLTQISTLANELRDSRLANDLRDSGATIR
# [4] = target: T4, murine TIM-3 extracellular domain protein with hFc tag (mTIM-3-hFc) (mouse, UniProt Q8VIM0 29-191); test: ELISA, coated mouse TIM-3 ECD protein, 0.6667 nM antibody
# T4 construct: also called mouse TIM-3 extracellular domain protein; not shown: human IgG Fc fragment (hFc) of the pCpC vector
# T4 chain: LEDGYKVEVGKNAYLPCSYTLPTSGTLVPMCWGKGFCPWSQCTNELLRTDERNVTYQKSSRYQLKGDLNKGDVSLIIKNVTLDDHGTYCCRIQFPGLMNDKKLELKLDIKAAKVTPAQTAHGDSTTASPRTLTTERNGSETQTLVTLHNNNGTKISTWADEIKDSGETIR
# [5] = target: T4, murine TIM-3 extracellular domain …; test: ELISA, coated mouse TIM-3 ECD protein, 6.6667 nM antibody
# [6] = target: T4, murine TIM-3 extracellular domain …; test: ELISA, coated mouse TIM-3 ECD protein, 66.667 nM antibody
# [7] = target: T5, monkey TIM-3 extracellular domain protein with hFc tag (cTIM-3-hFc) (monkey); test: ELISA, coated monkey TIM-3 ECD protein, 66.667 nM antibody
# T5 construct: not shown: human IgG Fc fragment (hFc) of the pCpC vector
# T5 chain: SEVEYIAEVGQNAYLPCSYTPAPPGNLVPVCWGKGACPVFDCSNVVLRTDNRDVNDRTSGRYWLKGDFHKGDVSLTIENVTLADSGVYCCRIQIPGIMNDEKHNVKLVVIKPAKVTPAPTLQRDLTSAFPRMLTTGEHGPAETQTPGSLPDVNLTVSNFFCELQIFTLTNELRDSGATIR
Binder,"IFN-γ production (donor X); antibody 0.1 µg/ml, N = 1 [1]","IFN-γ production (donor X); antibody 0.1 µg/ml, N = 2 [1]","IFN-γ production (donor X); antibody 1 µg/ml, N = 1 [1]","IFN-γ production (donor X); antibody 1 µg/ml, N = 2 [1]","IFN-γ production (donor X); antibody 10 µg/ml, N = 1 [1]","IFN-γ production (donor X); antibody 10 µg/ml, N = 2 [1]","IFN-γ production (donor X); antibody '0' (4th head as printed), N = 1 [1]","IFN-γ production (donor X); antibody '0' (4th head as printed), N = 2 [1]","IFN-γ production (donor X); antibody '0' (5th head as printed), N = 1 [1]","IFN-γ production (donor X); antibody '0' (5th head as printed), N = 2 [1]",Mean fluorescence intensity [2],OD450 [3],OD450 [4],OD450 [5],OD450 [6],OD450 [7]
"18D2H2 fully human TIM-3 antibody (human IgG4, kappa) (antibody, V domains shown) VH: EVQLVESGGDLVQPGGSLRLSCAASGFTFSTYWMTWVRQAPGRGLEWVANIKQDGSAKYYVDSVKGRFTLSRDDAKNSLYLQMNSLRAEDTAVYYCARGSNWFDYWGQGTLVTVSS VL: ETVMTQSPATLSVSPGERATLSCRANQNVYSNLAWYQQKPGQAPRLLIYDASTRATGFPARFSGSGSGTEFTLTISSLQSEDFAVYYCQQYNNWPLTFGGGTKVEIK",2660 pg/mL,2650 pg/mL,3000 pg/mL,3140 pg/mL,2810 pg/mL,3070 pg/mL,2280 pg/mL,2590 pg/mL,2340 pg/mL,2170 pg/mL,462,2.58,0.22,0.31,0.81,3.27
"34B6D8 fully human TIM-3 antibody (human IgG4, kappa) (antibody, V domains shown) VH: EVQLVESGGGLVQPGGSLRLSCAASGFTFSTYWMTWVRQAPGKRLEWVANIKQGGGDKYYVDSVKGRFTISTDNAKNSLYLQMNSLRAEDTAVYYCARGSNWFDPWGQGTLVTVSS VL: EIVMTQSPATLSMSPGERATLSCRASQSVYDNLAWYQQKPGQAPRLLIYGASTRATGIPARFSGSGSGTEFTLTISSLQSEDFALYYCQQYTHWPITFGQGTRLEIK",2770 pg/mL,2820 pg/mL,2930 pg/mL,3550 pg/mL,2980 pg/mL,3330 pg/mL,2600 pg/mL,2540 pg/mL,2280 pg/mL,2390 pg/mL,336,3.11,0.27,0.44,1.38,3.39
"39E5H1 fully human TIM-3 antibody (human IgG4, kappa) (antibody, V domains shown) VH: EVQLVESGGGLVQPGGSLRLSCAASGFTFSSYWMSWVRQAPGKGLEWVANIKRGGSERYYVDSVKGRFTISGDNAKNSVYLQMNSLRAEDTAVYYCARGSNWFDPWGQGTLVTVSS VL: ETVMTQSPAILSVSPGERATLSCRASQSVYSNLAWYQQKLGQAPRLLIYDASTRATGIPARFSGSGSGTEFTLTISSLQSEDFAVYYCQQYNNWPITFGQGTRLEIK",2700 pg/mL,2880 pg/mL,3070 pg/mL,3000 pg/mL,3150 pg/mL,3130 pg/mL,2580 pg/mL,2460 pg/mL,2190 pg/mL,2370 pg/mL,337,3.01,0.26,0.41,1.28,3.38
"215A8F2 fully human TIM-3 antibody (human IgG4, kappa) (antibody, V domains shown) VH: QVQLQQWGAGLLKPSETLSLTCTVYGGSFSGYYWNWIRQPPGKGLEWLGEINHSGSTNYNPSLKRRVTISVDTSKNQFSLKLSSVTAADTAVYYCARVYYYGPFDFWGQGTLVTVSS VL: not shown",2410 pg/mL,3170 pg/mL,2780 pg/mL,2030 pg/mL,3000 pg/mL,2470 pg/mL,2100 pg/mL,2300 pg/mL,1970 pg/mL,2400 pg/mL,366,2.88,0.24,0.38,1.08,3.24
"7A4F10 fully human TIM-3 antibody (human IgG4, kappa) (antibody, V domains shown) VH: EVQLLESGGGLVQPGGSLRLSCAASGFTFRTHLISWVRQAPGKGLEWVAAITGSGGSTYYADSVKGRFIISRDNSKNTLFLQMNSLRAEDTAVYYCAKDGGSGSYDDFWGQGTLVTVSS VL: ETVLTQSPVTLSLSPGERATLSCRASQSVGSYLAWYQQKPGQAPRLLIYDASNRATGIPARFSGSGSGTDFTLTISSLEPEDFAVYYCQQRSNWPPTFGQGTKVEIK",2930 pg/mL,2730 pg/mL,2920 pg/mL,2780 pg/mL,2900 pg/mL,2360 pg/mL,2340 pg/mL,2370 pg/mL,2290 pg/mL,2230 pg/mL,336,2.75,0.25,0.36,0.99,3.26
